According to patent publication US20040241754A1, “Modulating neuronal plasticity” (The Salk Institute for Biological Studies, priority 2003, published 2004):
One block for each molecule: values may come before it.

Columns and labels:
[1] = target: EphA2 (Homo sapiens, UniProt P29317); settings: read-out: Kd for binding to EphA2; cited from earlier work
[2] = target: T1, EphB4 (Homo sapiens, UniProt P54760); settings: read-out: Kd for binding to EphB4; cited from earlier work
T1 sequence (P54760 16-987): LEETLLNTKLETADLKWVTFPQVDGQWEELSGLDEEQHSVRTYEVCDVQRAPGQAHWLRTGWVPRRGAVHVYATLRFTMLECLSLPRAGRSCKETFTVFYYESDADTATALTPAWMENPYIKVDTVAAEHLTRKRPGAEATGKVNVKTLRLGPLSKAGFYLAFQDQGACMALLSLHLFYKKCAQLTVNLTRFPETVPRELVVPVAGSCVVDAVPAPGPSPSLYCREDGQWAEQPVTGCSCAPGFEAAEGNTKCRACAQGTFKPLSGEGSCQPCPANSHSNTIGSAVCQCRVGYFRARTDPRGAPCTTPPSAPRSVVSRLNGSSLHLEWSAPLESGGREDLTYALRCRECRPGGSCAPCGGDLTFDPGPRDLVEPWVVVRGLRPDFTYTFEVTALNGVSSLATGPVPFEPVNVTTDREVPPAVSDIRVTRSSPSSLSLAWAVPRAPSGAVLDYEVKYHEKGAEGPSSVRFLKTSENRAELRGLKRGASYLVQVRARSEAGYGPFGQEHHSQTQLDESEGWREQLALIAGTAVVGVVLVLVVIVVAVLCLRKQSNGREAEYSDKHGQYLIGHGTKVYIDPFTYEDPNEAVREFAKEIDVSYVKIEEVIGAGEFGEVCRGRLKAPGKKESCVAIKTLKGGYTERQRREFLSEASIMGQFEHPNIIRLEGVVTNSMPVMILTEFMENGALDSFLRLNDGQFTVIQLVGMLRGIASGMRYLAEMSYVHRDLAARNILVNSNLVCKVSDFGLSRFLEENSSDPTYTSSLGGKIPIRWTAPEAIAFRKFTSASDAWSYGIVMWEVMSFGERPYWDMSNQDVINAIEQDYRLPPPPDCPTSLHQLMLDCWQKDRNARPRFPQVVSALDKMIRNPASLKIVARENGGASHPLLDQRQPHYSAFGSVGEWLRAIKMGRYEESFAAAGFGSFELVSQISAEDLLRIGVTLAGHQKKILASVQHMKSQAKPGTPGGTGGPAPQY

[3] = target: T2, His-GRIP-PDZ6 (UniProt P97879 672-754); assay: displacement of ^35S-EphB2 from His-GRIP-PDZ6
T2 construct: domain: PDZ 6; also called GRIP fragment containing only the PDZ 6 domain; PDZ domain 6 of GRIP; not shown: His tag
T2 sequence (looked up): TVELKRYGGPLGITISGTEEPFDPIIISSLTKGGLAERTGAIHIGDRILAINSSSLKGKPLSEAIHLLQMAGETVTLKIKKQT

[4] = target: T3, His-GRIP(PDZ4-6) (rat, UniProt P97879 448-792); assay: displacement of ^35S-EphB2 (50 nM) from His-GRIP-PDZ4-6, Hill fit
T3 construct: range 448-792; not shown: His tag and vector residues from pRSET
T3 sequence (looked up): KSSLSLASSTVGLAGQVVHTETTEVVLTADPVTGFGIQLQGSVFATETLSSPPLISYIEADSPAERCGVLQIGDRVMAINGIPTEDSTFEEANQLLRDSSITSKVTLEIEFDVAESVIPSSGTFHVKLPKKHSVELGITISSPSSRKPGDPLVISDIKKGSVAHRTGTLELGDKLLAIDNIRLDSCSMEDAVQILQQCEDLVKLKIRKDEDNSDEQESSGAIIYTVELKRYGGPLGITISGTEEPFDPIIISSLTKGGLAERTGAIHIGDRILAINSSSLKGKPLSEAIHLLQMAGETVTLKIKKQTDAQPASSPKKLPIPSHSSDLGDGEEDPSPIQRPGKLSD

EphA2, sequence (P29317 24-976): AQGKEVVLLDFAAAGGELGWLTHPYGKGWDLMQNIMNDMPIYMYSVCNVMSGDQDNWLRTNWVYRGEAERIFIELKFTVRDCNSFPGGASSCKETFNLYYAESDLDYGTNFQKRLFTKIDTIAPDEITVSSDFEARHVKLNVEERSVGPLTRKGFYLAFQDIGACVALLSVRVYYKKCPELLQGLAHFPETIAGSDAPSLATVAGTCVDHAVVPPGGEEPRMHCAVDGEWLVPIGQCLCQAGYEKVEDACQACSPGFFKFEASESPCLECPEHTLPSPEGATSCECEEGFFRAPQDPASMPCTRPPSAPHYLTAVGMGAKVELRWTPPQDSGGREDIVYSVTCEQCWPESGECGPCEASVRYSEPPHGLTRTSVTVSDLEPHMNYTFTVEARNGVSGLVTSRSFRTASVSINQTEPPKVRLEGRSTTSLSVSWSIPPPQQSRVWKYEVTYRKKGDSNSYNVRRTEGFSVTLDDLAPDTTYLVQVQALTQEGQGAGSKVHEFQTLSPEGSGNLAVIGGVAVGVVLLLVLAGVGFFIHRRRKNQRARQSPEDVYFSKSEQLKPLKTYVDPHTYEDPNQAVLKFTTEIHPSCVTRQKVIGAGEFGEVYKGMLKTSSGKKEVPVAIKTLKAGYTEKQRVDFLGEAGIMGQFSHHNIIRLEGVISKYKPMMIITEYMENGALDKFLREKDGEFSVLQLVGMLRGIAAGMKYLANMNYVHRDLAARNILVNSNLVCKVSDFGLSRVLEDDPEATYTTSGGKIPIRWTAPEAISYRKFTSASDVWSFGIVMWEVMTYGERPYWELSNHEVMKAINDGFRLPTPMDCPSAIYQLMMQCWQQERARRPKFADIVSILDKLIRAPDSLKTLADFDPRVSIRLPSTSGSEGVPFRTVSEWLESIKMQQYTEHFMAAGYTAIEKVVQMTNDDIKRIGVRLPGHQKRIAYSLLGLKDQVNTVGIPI

B1: ephrin-A1: a 25 kDa, 205 amino acid glycoprotein; ephrin ligand (protein, UniProt P20827 1-205, looked up)
chain: MEFLWAPLLGLCCSLAAADRHTVFWNSSNPKFRNEDYTIHVQLNDYVDIICPHYEDHSVADAAMEQYILYLVEHEEYQLCQPQSKDQVRWQCNRPSAKHGPEKLSEKFQRFTPFTLGKEFKEGHSYYYISKPIHQHEDRCLRLKVTVSGKITHSPQAHDNPQEKRLAADDPEVRVLHSIGHSAAPRLFPLAWTVLLLPLLLLQTP
modifications: full-length
notes: a 25 kDa, 205 amino acid glycoprotein; ephrin ligand
Kd [1]: 25 nM

B2: ephrin-B2: a 38-42 kDa, 333 amino acid glycoprotein; ephrin ligand (protein, UniProt P52799 1-333, looked up)
chain: MAVRRDSVWKYCWGVLMVLCRTAISKSIVLEPIYWNSSNSKFLPGQGLVLYPQIGDKLDIICPKVDSKTVGQYEYYKVYMVDKDQADRCTIKKENTPLLNCAKPDQDIKFTIKFQEFSPNLWGLEFQKNKDYYIISTSNGSLEGLDNQEGGVCQTRAMKILMKVGQDASSAGSTRNKDPTRRPELEAGTNGRSSTTSPFVKPNPGSSTDGNSAGHSGNNILGSEVALFAGIASGCIIFIVIIITLVVLLLKYRRRHRKHSPQHTTTLSLSTLATPKRSGNNNGSEPSDIIIPLRTADSVFCPHYEKVSGDYGHPVYIVQEMPPQSPANIYYKV
modifications: full-length
notes: a 38-42 kDa, 333 amino acid glycoprotein; ephrin ligand
Kd [2]: 0.535 nM

Ki [3]: 155 nM | Ki [4]: 106 nM
Molecule: NVYGIESVKI (also called GluR2ct; R2ct) [GluR2 carboxy terminal peptide]
